According to the supplement of paper PMC11865577:

System: TO-3-N3 (biotin conjugate)
Assay: pull-down binding Z-score (relative to library population); higher = stronger binding
Details: RNA library: Library-2
Method in brief: (§1)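 Heat-folded RNA library (1 μg, Cy5 or Cy3 end label, phosphate/NaCl/KCl buffer) was captured for 60 min at 25 °C on streptavidin beads displaying 100 pmol of biotin-conjugated small molecule, then washed three times. The bound fraction, eluted in hot SDS, was hybridised to a DNA barcode microarray at 55.5 °C for 20 h. Z-scores for binding were taken against the library mean and standard deviation after beads-only subtraction and trimmed averaging of replicate barcoded probes.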

Sequence | pull-down binding Z-score
CAAUCACAUGUAAUUAGGUGUGAUUG [hsa-mir-510] | -0.789
CAAUCAUGUAUAACUAAAUUUGAUUG [hsa-mir-514a-2_514a-3] | -1.04
CAAUCAUGUAUAAUUAAAUUUGAUUG [hsa-mir-514a-1] | -0.112
CAAUCAUGUGUAAUUAGAUAUGAUUG [hsa-mir-514b] | -1.06
CAAUGAAGACAUGAAGACCCAAUGUCUUCAUUG [hsa-mir-4529] | -0.88
CAAUUUGAGACCAAU [hsa-mir-1285-2] | -0.0235
CACAAAUAUGGCUCUUUGUG [hsa-mir-4474] | -0.637
CACAAGACUAGGCUUCCCUGUG [hsa-mir-3152] | 0.212
CACAAUAUUUAGGACAACAAUAUU [hsa-mir-1302-6] | -0.282
CACACACAAUCACCAUGUG [hsa-mir-3118-1] | -0.577
CACACACAAUCACCGUGUG [hsa-mir-3118-2_3118-3_3118-4] | 0.0723
CACACAUACAUAUAUAUAUGUUUG [hsa-mir-3149] | 0.618
CACACGCUUUAUUUGUGCCGUUUG [hsa-mir-758] | -0.0281
CACACUGGUGAGGUAACAGGAUCCGGUG [hsa-mir-182] | 0.159
CACAGAGUAAGCAUCAAUAGCAUUGGCAAGUUGAACUGAGCUGUC [hsa-mir-6895] | -0.393
CACAGUUCUGG [hsa-mir-761] | 0.292
CACCAAAGGGUUAAGGGUUUGCUCUGGAG [hsa-mir-4653] | -0.018
CACCAGCCAGGCAUUGCUCAGCCCGUUUCCCUCUGGGGGAGCAAGGAGUGGUGCUGGGUUUGUC [hsa-mir-593] | 0.762
CACCUCCCGGCCCGGAGCUG [hsa-mir-4734] | -0.243

Sequence | pull-down binding Z-score
CACGAGAUACCAGUGUGCACUUGUG [hsa-mir-542] | -0.51
CACGAGAUUGGGUUGUGCAGAGGCUGACACUUG [hsa-mir-5004] | -0.363
CACGCAUUUGCUUUACUUGCAAUGAUUAUA [hsa-mir-300] | 0.485
CACGCCGCGCCGCCGGGUCCCUCCUCCCCGGAGAGGCUG [hsa-mir-4674] | 0.257
CACUAAUGUGAUUAAUGUUGUUGUG [hsa-mir-3657] | -0.405
CACUACAAGAAGAAUGUAGUUGUG [hsa-mir-19a] | -0.108
CACUCAGGCAGUGCCAUGAGC [hsa-mir-6811] | 0.249
CACUCAGUAAAUAUUUGUUGAGUG [hsa-mir-1271] | -0.368
CACUCCCGGGAUCCCCAGGGAC [hsa-mir-3176] | 0.149
CACUCCCGUGCUUGUCCGAGGAGGGAGG [hsa-mir-149] | 1.78
CACUCUCCCUAAUGGGGCUGAAGACAGCUCAGGGGCAGGGUG [hsa-mir-4472-1] | -0.357
CACUGAUUCAGUAAAAUACUCAGUG [hsa-mir-891a] | -0.707
CACUGCAGUUACCCUCCCCUCGGCGUUACUGAGCACUG [hsa-mir-637] | 0.22
CACUUUCUGCUCUCUGGUGAAAGUG [hsa-mir-371a] | 0.0211
CAGACAAUAUAGCUGAGUUUGUCUG [hsa-mir-215] | -0.801
CAGACCAUGCCACAUCCGUCUG [hsa-mir-7152] | -0.515
CAGACGGCUUUCUCUCCGAAUGUCUG [hsa-mir-2276] | -0.908
CAGACUCUG [hsa-mir-4326] | 0.067
CAGACUGUCUUCCCAAAUAGCCUG [hsa-mir-4772] | 0.00537

Sequence | pull-down binding Z-score
CAGAGAUGAAAUUGGGACUCCUCU [hsa-mir-7157] | 0.189
CAGAGCUGCAGCUGCUCCACCCUG [hsa-mir-6730] | 0.563
CAGAGGCAUCGGGUCAG [hsa-mir-4746] | 0.807
CAGAGGCUGGCUUUCCAAAACUCUG [hsa-mir-1913] | 0.996
CAGAGGGAGGCCAAGAAGACCUCUG [hsa-mir-4793] | -0.656
CAGAGGGGCUGGCAGUACUGCUCUG [hsa-mir-4649] | 0.999
CAGAGGUCCCACAGCAGGGCUGGAAAGCACACCUGUGGGACUUCUG [hsa-mir-3922] | 0.224
CAGAGUGGGCUCACCUCUCGCCCACACUG [hsa-mir-6760] | -0.556
CAGAGUGUGCAUGGCAGGCU [hsa-mir-7156] | 0.383
CAGAGUUCCCUUCUUGUGAGCUCAG [hsa-mir-6733] | -0.518
CAGAUACUUUUUAAAAUUUGUUUGAGUUGAGGCAGAUUAAAUAUCUG [hsa-mir-4742] | -0.76
CAGCACUGAGCAGGCAGUGUUGU [hsa-mir-4288] | -0.241
CAGCAGCAGCAGCAGCAGCAGCAGCAGCAGCAGCAGCAGCAGCAGCAG [r(CAG)16] | 0.922
CAGCCAUGACCUGACCUUCUGUCUG [hsa-mir-4677] | -0.163
CAGCCCCGUGUGUUGAGGAAGGAAGG [hsa-mir-940] | 0.485
CAGCCCGUGGUGGGG [hsa-mir-3619] | 0.721
CAGCCCUGCACUGAAC [hsa-mir-614] | 0.285
CAGCCUGGGGCAUCGGUUG [hsa-mir-5572] | 2.41

System: TO-N3-2 (biotin conjugate)
Assay: as above
Details: RNA library: Library-2
Method in brief: as §1

Sequence | pull-down binding Z-score
AUUUGCCAUCACCUUUACCUUUAAUGGCAAAA [hsa-mir-548av] | -0.906
AUUUUCACUUAAU [hsa-mir-302f] | -1.17
CAAAACUCCGUACAUUGCUAUUUUGC [hsa-mir-3064] | -0.105
CAAACCGGACCUGAGCGUUUUG [hsa-mir-375] | 0.74
CAAAGACCAGAACUUAAUGGUCUCUG [hsa-mir-4490] | -1.15
CAAAUCGACUGUCCAAUGGAUUUG [hsa-mir-133a-2] | -0.536
CAAAUCGCCUCUUCAAUGGAUUUG [hsa-mir-133a-1] | -0.613
CAACAGUUCUGUAGCGCAAUUGUG [hsa-mir-203a] | 1.07
CAACUACUCAGGAGGCUG [hsa-mir-566] | 0.304
CAAGAGGUGUGAGCCACACACACGCCUGGCCUCCUG [hsa-mir-5699] | 0.687
CAAGCACACAGGGCCUGGGACUAGCAUG [hsa-mir-4728] | 1.52
CAAGGAAGAGUCACAGUCUCUUCCUUG [hsa-mir-659] | -0.539
CAAGGGCUCUACUGUCCUUUCAGGAGAGCCCUUG [hsa-mir-4776-2] | -1.37
CAAGGGCUCUCCUGAAAGGACAGUAGAGCCCUUG [hsa-mir-4776-1] | -0.109
CAAGUAAAAGGAAUUUUCAUUUUCCAGCCCCUAAUUG [hsa-mir-6739] | -0.628
CAAGUCCGUCUUCCUGAGAGGUUUG [hsa-mir-133b] | 0.836
CAAGUUAUCACUGAGCGACUUC [hsa-mir-4664] | -0.296
CAAUAGUAAAAAGACAACCUGUUG [hsa-mir-3133] | -0.486
CAAUCACAUGUAAUUAGGUGUGAUUG [hsa-mir-510] | -1.29

Sequence | pull-down binding Z-score
CAAUCAUGUAUAACUAAAUUUGAUUG [hsa-mir-514a-2_514a-3] | -1.74
CAAUCAUGUAUAAUUAAAUUUGAUUG [hsa-mir-514a-1] | -1.18
CAAUCAUGUGUAAUUAGAUAUGAUUG [hsa-mir-514b] | -1.33
CAAUGAAGACAUGAAGACCCAAUGUCUUCAUUG [hsa-mir-4529] | -1.1
CAAUUUGAGACCAAU [hsa-mir-1285-2] | 0.218
CACAAAUAUGGCUCUUUGUG [hsa-mir-4474] | -0.657
CACAAGACUAGGCUUCCCUGUG [hsa-mir-3152] | -0.0548
CACAAUAUUUAGGACAACAAUAUU [hsa-mir-1302-6] | -0.518
CACACACAAUCACCAUGUG [hsa-mir-3118-1] | -1.07
CACACACAAUCACCGUGUG [hsa-mir-3118-2_3118-3_3118-4] | -1.24
CACACAUACAUAUAUAUAUGUUUG [hsa-mir-3149] | -0.501
CACACGCUUUAUUUGUGCCGUUUG [hsa-mir-758] | -0.655
CACACUGGUGAGGUAACAGGAUCCGGUG [hsa-mir-182] | 0.691
CACAGAGUAAGCAUCAAUAGCAUUGGCAAGUUGAACUGAGCUGUC [hsa-mir-6895] | 1.37
CACAGUUCUGG [hsa-mir-761] | 0.18
CACCAAAGGGUUAAGGGUUUGCUCUGGAG [hsa-mir-4653] | 0.14
CACCAGCCAGGCAUUGCUCAGCCCGUUUCCCUCUGGGGGAGCAAGGAGUGGUGCUGGGUUUGUC [hsa-mir-593] | 1.24
CACCUCCCGGCCCGGAGCUG [hsa-mir-4734] | 0.527
